This passage reports Kd results from patent US12331120 (dated 2025).

The target of one assay is mouse PD-L1 (mouse, UniProt Q9EP73). Put plainly: SPR. (In general: Surface plasmon resonance follows binding to a sensor surface in real time, without labels.)
The target of assay [1] is T1, human PD-L1 (human, UniProt Q9NZQ7). As to the kind of experiment: SPR.
The target of assay [2] is T1, human PD-L1. As to the kind of experiment: BLI. (BLI is a label-free optical method that tracks binding on a fibre tip over time.)

T1 sequence (Q9NZQ7 19-238): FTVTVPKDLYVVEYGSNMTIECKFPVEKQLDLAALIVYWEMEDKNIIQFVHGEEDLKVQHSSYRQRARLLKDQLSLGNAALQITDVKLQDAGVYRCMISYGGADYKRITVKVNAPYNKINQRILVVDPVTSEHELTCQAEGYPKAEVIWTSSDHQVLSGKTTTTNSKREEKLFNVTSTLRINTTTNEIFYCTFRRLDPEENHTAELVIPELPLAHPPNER
Chain of mouse PD-L1 (Q9EP73 19-238): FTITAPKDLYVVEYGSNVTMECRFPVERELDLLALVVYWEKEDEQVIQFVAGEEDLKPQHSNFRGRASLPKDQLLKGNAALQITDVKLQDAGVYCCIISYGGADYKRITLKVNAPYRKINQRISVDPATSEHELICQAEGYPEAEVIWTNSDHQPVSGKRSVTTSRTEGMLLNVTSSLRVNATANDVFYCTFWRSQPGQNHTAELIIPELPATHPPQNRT

B1: KL001-13 (antibody, V domains shown)
VH: QVQLVESGAEVKKPGSSVKVSCKASGGTFSSYAISWVRQAPGQGLEWMGRIIPILGIANYAQKFQGRVTVTADKSTSTAYMELSSLRSEDTAVYYCARSGYGYAYGSFDYWGQGTLVTVSS
VL: QLVLTQPPSVSGAPGQTVTISCTGQTIGAGYDVHWYQQLPGAAPKLLIYGNLNRPSGVPDRFSGSKSGTSASLAITDLQAEDEADYYCQSYDSRLGVVFGGGTKLTVL
In the case of B1, the Kd with mouse PD-L1 was roughly 2.8 nM; with human PD-L1 [1] it was roughly 0.0632 nM; with human PD-L1 [2] it was 0.00489 nM.

B2: KL001 (PL110) (antibody, V domains shown)
VH: QVQLVESGAEVKKPGSSVKVSCKASGGTFSSYAISWVRQAPGQGLEWMGRIIPILGIANYAQKFQGRVTVTADKSTSTAYMELSSLRSEDTAVYYCARSGYSYAYGSFDYWGQGTLVTVSS
VL: QLVLTQPPSVSGAPGQTVTISCTGPTIGAGYDVHWYQQLPGAAPKLLIYGNLNRPSGVPDRFSGSKSGTSASLAITDLQAEDEADYYCQSYDSRLGVVFGGGTKLTVL
Regarding B2, in the assay with human PD-L1 [2], the Kd was found to be 0.0584 nM.

The term Kd denotes a measure of binding affinity in units of concentration. Lower therefore signals tighter binding.
